# According to patent US12495796B2, “Compositions, methods, and applications of a synthetic surfactant” (1283581 B.C. LTD, priority 2019, dated 2025):
# B1: RSN 4: recombinant mature ranaspumin protein without signal peptide, Synthetic Amino Acid Sequence No. 4 (protein, listed as Engystomops pustulosus)
# chain: DRNLALDGRATMSSIWMDPDIRQSFLGVAMNGIDGNTDSVYFHGSCFHTGLDSPAWYRVDLLRTSKISSITITNRGDFGSRTNGAEIRIGDSLANNGNNNPRCALVTSIADGETRTFQCNNMVGRYVNIVLTGKTEFLHLCEVQIFGENLPRSFSCQYSNDGMITLLVSTRFMK
# B2: RSN 5: recombinant mature ranaspumin protein without signal peptide, Synthetic Amino Acid Sequence No. 5 (protein, listed as Engystomops pustulosus)
# chain: GAPGGAAGPLLVLNILGSVVHETKPPEGVNLALKGIASSDSIASNGSVTGLAAKAIDGIRVSDFFKGHCSLTNGLNNPTWWKVDLKKSYKISSVFVTNRDDCCTERLLHAEIRIGSNPDHNHNPICAEVKTVASSNIGFCCGGMEGRYVSVSVPRKEQLSLCEVEVYGDLKKVLHCA
# B3: RSN 2: recombinant mature ranaspumin protein without signal peptide, Synthetic Amino Acid Sequence No. 2; main surfactant (protein, listed as Engystomops pustulosus)
# chain: LILDGDLLKDKLKLPVIDNLFGKELLDKFQDDVKDKYGVDTKDLKILKTSEDKRFYYVSVDAGDGEKCKFKIRKDVDVPKMVGRKCRKDDDDDDGY
# B4: RSN 3: recombinant mature ranaspumin protein without signal peptide, Synthetic Amino Acid Sequence No. 3 (protein, listed as Engystomops pustulosus)
# chain: IDPTGLVQILLLEQVVHKIPPGNINLARTGIATQDSDYTASAVPSEARLAIDGNRNSDFNQKSCSHTGGNEPAWWRLELKKKSKISVVVIAIRSDCCMDRFKGAELRIGNSQDATVNPICGKVSAVKGSNYLFCCDGMEGKYISVVIPDRHEFLSLCEVEVYGAKPIEGTHCK
# B5: RSN 1: recombinant mature ranaspumin protein without signal peptide, Synthetic Amino Acid Sequence No. 1 (protein, listed as Engystomops pustulosus)
# chain: GGGNIGGGAKLGPEKPATPGIQDLLKSLLSVLNLSPPAIPEDAEAVSYRDAKNGKFRLIKIHLGGELYCHVKQIAGPILALPIVSDVVEVTGKECGKTEDDPLEDFPIP
# B6: RSN 6: recombinant mature ranaspumin protein without signal peptide, Synthetic Amino Acid Sequence No. 6 (protein, listed as Engystomops pustulosus)
# chain: ETLCIPGRMKQLDAGAGRVVAVKSNGDVYQLLENNWVQIPGKLIHVTVGPAGLWGVNKDKNIYKYVDNDWLQVDGLLNQIDAGGNRFVVGVNDNEDIFCLNQDQTTSNAVKLDYKGVDGKLKYYSSGGYGSWGVNAAYDIFYRRNVHPMSCQGTNWENVEGKLVMLEVAEDGSVYGVNYNGHVYKREGITAGNPMGTSWTYLKVDEKVRHVSYDRGVLYVVTIDDRIFRC
# Tests used:
# [1] = Retention of pesticide (Bifenazate) in leaves with RSN 1-6 mixture as adjuvant, GC/MS quantification; format: in vivo, Arabidopsis thaliana (columbia ecotype); conditions: Floramite + RSN 1-6 mixture vs pesticide alone
# Procedure: 12 four-week-old Arabidopsis thaliana (columbia ecotype) plants were used for the experiment. (6 control, 6 experimental) (FIG. 13).
# Growth condition: plants were grown in soil at in 16-hour days/8-hour nights light cycle with temperatures of 22° C. Lighting was provided with fluorescent bulbs giving an average light intensity of 175 micromoles/meter^2 second. Seeds were cold treated (stratification) for 3 days at 4° C. after imbibition to synchronize germination
# The experimental plants were applied with a mixture of Floramite® and RSN 1-6 mixture (50 μL of 10 mg/mL) directly to the leaves using a pipette. The control plants were applied with just the pesticide. Samples were collected at the end of 5 days and 10 days.
# 4 control leaves and 4 experimental leaves were collected at the end of 5 days and 10 days of application. The leaves were homogenized using liquid nitrogen and extracted using Methanol:Chloroform mix (2:1) (FIG. 14). […]
# A GC/MS instrument (Thermo Focus GC, Polaris ion trap MS) with a DB-5 column was used for quantification of the pesticide. […]
# Concentration of Bifenazate in control leaf sample −0.018 μg/μL (FIG. 15). […] Concentrations were calculated using the peak area of the internal standard compared to the peak area of the pesticide. The experimental leaf was calculated to have a 3.6 times the amount of Bifenazate when compared to the control leaf.
# [2] = test system: E. coli; assay: Kirby Bauer antimicrobial assay (disk-diffusion) on E. coli culture plates; format: cell-based, Escherichia coli; conditions: 24 hours; for antimicrobial properties / radius of resistance to the E. coli colonies: 20 μL of 10 mg/mL on filter paper disc, 37° C.; for effect on E. coli colonies (kills or slows growth): conclusion from disk-diffusion; for resistance to E. coli (in words): growth of colonies near the filter paper disc
# Procedure: Antimicrobial agents stop the growth or kill microorganisms such as Escherichia coli (E. coli). The Kirby Bauer antimicrobial assay or disk-diffusion method is used to test what antibiotic will fight against which bacteria strain.^17 The Kirby Bauer antimicrobial assay, is most commonly used to monitor the growth of bacteria growth around a disk, measuring the radius/diameter of the growth from the disk if a gap is present; this can be done in a time period as short as 24 hours or as long as 5 days.^18
# RSN mixture was prepared using equal parts of each protein (RSN 1-6) in a concentration of 10 mg/mL and vortexed until combined.^22 E. coli culture plates were prepared and allowed to dry, small filter paper circles were placed on the plate, with a 20 μL of the RSN sample labeled RSN 1-6.
# Once the protein was placed on the E. coli culture plates, the plates were placed into a new Brunswick Scientific Excella E24 Incubator Shaker set at 37° C., for 24 hours. After 24 hours the plates were taken out of the incubator shaker and observed.
# [3] = Denaturing of ranaspumin proteins with increasing temperature, monitored by circular dichromium (CD); format: physicochemical; conditions: CD 200-300 nm, 0.25 mg/mL, 20-90° C. in 5° C. steps
# Procedure: The secondary structure of ranaspumin proteins can be confirmed with CD to identify if there is a presence of an α-helix, β-sheets or random coils. The CD can also be used to monitor the denaturing of a protein structure by observing the intensity of the bands on the spectra. This experiment uses increasing temperature to determine when ranaspumin proteins start to denature in the secondary structure with the use of a CD spectrum. A 3 mL solution with a concentration of 0.25 mg/mL of RSN 1-6 was diluted from a range of 2.69 mg/mL-0.50 mg/mL stock solution. The Jasco 815 […], with Jasco temperature controller and a water bath attachment was used to analyze the RSN 2 protein structure. The initial temperature was set to 20° C., the wavelength was set to 200-300 nm and the temperature was increased by 5° C. after each measurement and allowing for 60 seconds of stability before recording the next measurement, in a temperature range of 20-90° C. A bank was run for a baseline before a 1.5 mL solution was run through the CD and the spectra were monitored for a change in intensity in the bands.
molecule,measurement,setting,value
COc1ccc(-c2ccccc2)cc1NNC(=O)OC(C)C [Bifenazate],amount of Bifenazate in experimental leaf compared to control leaf,[1]; after 5 days,3.6 times
same,amount of Bifenazate in experimental leaf compared to control leaf,[1]; after 10 days,1.2 times
B1,antimicrobial properties,[2],did not show any antimicrobial properties
same,temperature at which the protein denatures further,[3],90 °C
same,temperature at which the protein starts to denature,[3],50 °C
B2,antimicrobial properties,[2],presented antimicrobial properties
same,radius of resistance to the E. coli colonies,[2],0.7 cm
same,effect on E. coli colonies (kills or slows growth),[2],slows the rate of the growth of the E. coli colonies
same,resistance to E. coli (in words),[2],moderate resistance
same,temperature at which the protein fully denatures,[3],70 °C
B3,antimicrobial properties,[2],presented antimicrobial properties
same,radius of resistance to the E. coli colonies,[2],1.1 cm
same,effect on E. coli colonies (kills or slows growth),[2],kills the E. coli colonies
same,resistance to E. coli (in words),[2],high resistance
same,temperature at which the protein starts to denature,[3],70 °C
B4,antimicrobial properties,[2],did not show any antimicrobial properties
same,temperature at which the protein fully denatures,[3],70 °C
same,temperature at which the protein starts to denature,[3],70 °C
B5,antimicrobial properties,[2],did not show any antimicrobial properties
same,temperature at which the protein denatures further,[3],70 °C
same,temperature at which the protein starts to denature,[3],50 °C
B6,antimicrobial properties,[2],did not show any antimicrobial properties
same,secondary structure staying intact up to,[3],30-39 °C
same,slowly denatures until,[3],90 °C
same,temperature at which the protein starts to denature,[3],40 °C
